Laboratory results taken from patent EP4676945A2.

Target: fibrin
Assay: cell adhesion assay: HEK293 cells transfected with the CAR, 30 minutes on fibrin-coated plates, washed with PBS, adhered cells counted by Hoechst stain; reference control-CAR

B1: fibrin-specific FIB2-CAR (PMC 1946, FIB2scfvCAR), expressed on transfected/transduced HEK293 cells (receptor)
chain: DIQLTQSPSSLSASVGDRVTITCRASQNIGVNLNWYQQRPGKGPKLLVSSTFSLQSGVPSRFSASGAGTNFTLTISSLQPEDYVTYYCQQSYSSPFTFGPGTKVDIKGGGGSGGGGSGGGGSEVQLVESGGGAVQPGRSLRLSCAASGVSFSNIGMHWVRQAPGKGLEWVALISSDGRHTHYADSVKGRFTISRDNSENTLYLQINGLRADDTAVYYCAKGLDTRARYMGKFYTFDYWGQGTLVTVSSASAIEVMYPPPYLDNEKSNGTIIHVKGKHLCPSPLFPGPSKPFWVLVVVGGVLACYSLLVTVAFIIFWVKRGRKKLLYIFKQPFMRPVQTTQEEDGCSCRFPEEEEGGCELRVKFSRSADAPAYQQGQNQLYNELNLGRREEYDVLDKRRGRDPEMGGKPRRKNPQEGLYNELQKDKMAEAYSEIGMKGERRRGKGHDGLYQGLSTATKDTYDALHMQALPPR
In the case of B1, the fold increase of cell adhesion to fibrin against the control-CAR construct is reported as 9.8 fold.
